Results on 1 molecule are retold here after US6096512A, “Cloned DNA encoding a UDP-GalNAc: Polypeptide, N-acetylgalactosaminyltransferase” (Pharmacia & Upjohn Company, priority 1997, dated 2000).

The target in assay [1] is T1, bovine colostrum GalNAc-transferase (Bos taurus, UniProt Q07537).
T1 sequence (Q07537 41-559): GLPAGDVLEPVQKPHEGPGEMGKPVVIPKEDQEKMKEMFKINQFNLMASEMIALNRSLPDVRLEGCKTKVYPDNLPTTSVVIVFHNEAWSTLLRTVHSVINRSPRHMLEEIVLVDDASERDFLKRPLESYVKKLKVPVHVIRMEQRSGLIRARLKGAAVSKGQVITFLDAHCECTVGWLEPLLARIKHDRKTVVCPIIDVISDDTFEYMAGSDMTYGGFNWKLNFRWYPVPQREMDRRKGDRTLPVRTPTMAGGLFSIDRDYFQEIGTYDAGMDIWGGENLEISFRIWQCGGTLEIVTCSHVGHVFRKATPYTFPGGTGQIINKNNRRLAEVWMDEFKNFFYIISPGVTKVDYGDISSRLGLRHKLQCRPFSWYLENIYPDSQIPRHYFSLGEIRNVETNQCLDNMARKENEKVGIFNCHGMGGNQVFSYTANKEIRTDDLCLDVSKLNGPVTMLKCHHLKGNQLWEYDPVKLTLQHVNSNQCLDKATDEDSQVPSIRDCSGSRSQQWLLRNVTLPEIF
Conditions: Cruz and Moscarello, 1983; cited from earlier work.

Assay [2] deals with T1, bovine colostrum GalNAc-transferase. Nature of the assay: Transfer of N-acetylgalactosamine to protein acceptors by bovine colostrum GalNAc-transferase. Type of assay: biochemical. Conditions: acceptor 65 μM, enzyme approximately 65 mU/ml, 60 minutes. The method, then: The standard assay for UDP-GalNAc:polypeptide, N-acetylgalactosaminyltransferase activity during purification contained the following components in a final volume of 80 μl: 50 mM Imidazole pH 7.2, 10 mM MnCl2, 0.5% Triton X-100, 15 μM UDP-GalNAc, UDP[1-^3 H-] GalNAc (27,000 cpm/assay), 0.15 mg/ml apomucin and varying amounts of enzyme (see individual experiments). The reaction mixture is incubated at 37° C. for 5-10 minutes (see individual experiments) and the reaction product is TCA precipitated and radioactivity measured as described. Assays for activity in lysates from Spodoptera frugiperda cell line 9 (hereinafter referred to as Sf9 cells) are carried out as described by Thomsen et al., (1990).
The above conclusions and the predictions of the specificity algorithm are validated experimentally by studying the ability of bovine colostrum GalNAc-transferase to transfer N-acetylgalactosamine to a variety of acceptors, both native proteins and synthetic acceptor peptides. The transfer of N-acetylgalactosamine to protein acceptors is assayed as described by Elhammer and Kornfeld, 1986, with minor modifications. The concentration of UDP-GalNAc is saturating in all assays; a Km of 8 μM is reported for bovine colostrum GalNAc-transferase (Elhammer and Kornfeld, 1986).
The transfer of N-acetylgalactosamine to protein acceptors was assayed
under standard conditions (see Material and Methods). The acceptor
concentration was 65 μM, the enzyme concentration approximately
65 mU/ml and assay time was 60 minutes. The transfer to both native and
reduced-carboxymethylated acceptors was assayed.

B1: Myelin basic protein: efficient acceptor for GalNAc-transferase, included as a positive control (protein, UniProt P02686 1-304, looked up)
Myelin basic protein: MGNHAGKRELNAEKASTNSETNRGESEKKRNLGELSRTTSEDNEVFGEADANQNNGTSSQDTAVTDSKRTADPKNAWQDAHPADPGSRPHLIRLFSRDAPGREDNTFKDRPSESDELQTIQEDSAATSESLDVMASQKRPSQRHGSKYLATASTMDHARHGFLPRHRDTGILDSIGRFFGGDRGAPKRGSGKDSHHPARTAHYGSLPQKSHGRTQDENPVVHFFKNIVTPRTPPPSQGKGRGLSLSRFSWGAEGQRPGFGYGGRASDYKSAHKGFKGVDAQGTLSKIFKLGGRDSRSGSPMARR
Regarding B1, the N-acetylgalactosamines per molecule in assay [1] is 1.2 to 1.5 N-acetylgalactosamines per molecule. For the same molecule, the “Product formed, native acceptor” value in assay [2] (native) worked out at 22.2 nmol/min/mg. The “Product formed, reduced and carboxymethylated acceptor” value in assay [2] (myelin basic protein was not reduced and carboxymethylated) is reported as 21.3 nmol/min/mg.
